Reference: patent publication US10077433B2, “Permuted and nonpermuted luciferase biosensors” (PROMEGA CORPORATION, priority 2006, dated 2018)

Legend:
[1] = system: intracellular cAMP concentration, HEK 293 cells; experiment: Intracellular cAMP changes in HEK293 cells with CPM-hRL Luc/RIIβB biosensors (isopreterenol, propranolol, forskolin); type: cell-based
Procedure: Cells were cultured in 2 mL DMEM/F12 with HEPES buffer (Invitrogen) and 10% FBS at 37° C. with 5% CO2 in a 6 well plate. Three of the constructs described in Example XVII were used to detect intracellular changes of cAMP concentrations. The constructs used were: pBFB277, pBFB279 and pBFB287. HEK293 cells stably expressing CPM91-hRL/RIIβB (ORF derived from 201325.44.H6 were also used in these experiments. HEK293 cells were transfected with TransIt®-LT1 Reagent (MIRUS) using 6 μL TransIt®-LT1 reagent and 2 μg DNA (pBFB277, pBFB279 and pBFB287) per well of a 6 well plate. Cells were allowed to grow overnight and were assayed the next day. Approximately 1 day after transfection, cells were trypsinized, resuspended in fresh DMEM/F12 with HEPES buffer (Invitrogen) with 1% FBS and plated in a 96 well plate at approximately 10,000 cells per well. Alternatively, a HEK293 cell line stably expressing CP91-hRL/RIIβB was plated in a 96 well plate at approximately 10,000 cells per well. A 10 μL aliquot of 600 μM EnduRen was added to a total of 100 μL of cell culture to give a final concentration of approximately […]. Cells were then incubated at 37° C. with 5% CO2. After 5 hours, the plate was removed from the incubator and allowed to cool to room temperature for at least 20 minutes. After 20 minutes, baseline measurements of luminescence were measured using a 96 well Veritas Luminometer (Turner Biosystems; integration time of 0.5 seconds per well). Cells were then induced with 10 μM isopreterenol (CalBiochem), 50 μM forskolin (Sigma) or not induced (0.1% DMSO, Sigma) and luminescence was measured continuously for about 30 minutes. After 30 minutes, 10 μM propranolol (Sigma) was added to cells already induced with isopreterenol and 0.1% DMSO was added to all other samples. Luminescence was then measured continuously for the next 30 minutes. A final addition of 50 μM forskolin was added to the isopreterenol/propranolol sample and 0.1% DMSO was added to all other samples. Luminescence was then measured continuously for the next half hour. Samples were measured in sets of 4-6 replicates. 10× stocks of isopreterenol, propranolol, forskolin and DMSO were made in DMEM/F12 with HEPES buffer (Invitrogen) and 1% FBS.

[2] = system: intracellular cAMP concentration, HEK 293 cells; experiment: Intracellular cAMP changes in HEK 293 cells transiently transfected with CPM-FF Luc/RIIβB (pBFB141); type: cell-based
Procedure: Cells were cultured in 60 ml in DMEM/F12 with HEPES buffer (Invitrogen) with 10% FBS at 37° C. with 5% CO2.
The ORF encoding the CPM-FF Luc/RIIβB based cAMP biosensor with X/Y linker lengths of (X=10, Y=0) was transferred to Flexi vector pF4K (Flexi vector system; Promega Corp.). The resultant plasmid construct (pBFB141) utilizes an upstream CMV promoter for expression of the associated cAMP biosensor in mammalian cells.
Cells were transfected with TransIt®-LT1 Reagent (MIRUS) using 0.3 μl TransIt®-LT1 reagent and 0.15 μg DNA per well of a 96 well plate. Cells were allowed to grow overnight and were assayed the next day.
Approximately 1 day after transfection, cells were removed from the incubator and equilibrated to room temperature. A 5 μl aliquot of 100 mM Luciferin EF was added to a total of 90 μl of cell culture plus transfection reagent to give a final concentration of approximately 5 mM luciferin. Cells were then incubated at room temperature for at least 90 minutes. After 90 minutes at room temperature, baseline measurements of luminescence were measured using a 96 well Veritas Luminometer (Turner Biosystems; integration time of 0.5 seconds per well). Cells were then induced with 10 μM isopreterenol (CalBiochem), 50 mM forskolin (Sigma) or not induced (0.1% DMSO, Sigma) and luminescence was measured continuously for about 30 minutes. After 30 minutes, […] (Sigma) was added to cells with isopreterenol and 0.1% DMSO was added to all other samples. Luminescence was then measured continuously for the next 30 minutes. A final addition of 50 μM forskolin was added to the isopreterenol/propranolol sample and 0.1% DMSO was added to all other samples. Luminescence was then measured continuously for the next half hour. Samples were measured in sets of 12 replicates. 10× stocks of isopreterenol, propranolol, forskolin and DMSO were made in 1×PBS (Invitrogen).

[3] = system: cyclic AMP dependent protein kinase catalytic subunit; conditions: cited from earlier work
[4] = Nonpermuted Oplophorus luciferase/RIIβB insertion constructs, luminescence with or without exogenous cAMP; type: biochemical; conditions: for luminescence, + exogenous cAMP: addition of exogenous cAMP to 50 μM final concentration; for luminescence, − no exogenous cAMP: no exogenous cAMP was added
Procedure: Protein was expressed from these constructs using the TnT T7 Coupled Reticulocyte Lysate System. Following expression, 9 μL of TNT reaction was mixed with 1 μL 1 mM cAMP stock or H2O, and the reactions were allowed to incubate at room temperature for approximately 15 minutes. Following incubation, 10 μL of 2× buffer (300 mM HEPES, pH=8.0, 200 mM thiourea) was added to each reaction, and luminescence was measured from the resulting 20 μL of solution following addition of 100 μL of Renilla Assay Reagent using a Turner 20/20N luminometer (1 second integration time).

[5] = CPM hRL / GAF A domain biosensor, luminescence with or without exogenous cAMP (reticulocyte lysate); type: biochemical
Procedure: An additional type of cAMP biosensor was constructed using a circularly permuted Renilla luciferase (hRL) and a GAF domain. The plasmid DNA construct encoding the following fusion protein: Met-(hRL 92-311)-[…]-(GAF A domain from Trypanosoma brucei PDE; Genbank AF192755 amino acids 241-375)-[…]-A-(hRL 3-91)-Val (SEQ ID NO:185) [clone pBFB232]. Following expression using the T7 Coupled Reticulocyte Lysate System, luminescence activity was measured in the presence or absence of exogenous cAMP. In the presence of cAMP, the measured activity was 7595 RLU; in the absence of cAMP, the measured activity was 298 RLU (about a 25 fold change). […] This type of reagent may allow the monitoring of changes in cAMP concentration in living cells, and it also may provide distinct advantages over existing FRET-based cAMP biosensors in that assay format. Moreover, since the GAF domain is a highly conserved fold in nature responsible for binding a wide range of molecules, it is likely that additional types of CPM hRL biosensors could be made using this fold.

Molecule | luminescence, + exogenous cAMP [4] | luminescence, − no exogenous cAMP [4] | other results
CC(C)NCC(O)c1ccc(O)c(O)c1 (stereo not drawn) [isopreterenol] | – | – | increase in light output ([1]; HEK293 cells stably expressing CPM91-hRL/RIIβB, isopreterenol and forskolin treatment): about 5 fold; increase in light output from transfected cells ([1]; HEK 293 transiently transfected with CPM-hRL Luc/RIIβB (X=4, Y=20) constructs, 10 μM isopreterenol or 50 μM forskolin alone): approximately 2 fold; increase in light output from transfected cells ([2]; HEK 293 cells, pBFB141, 10 μM isopreterenol or 50 mM forskolin (so in the source), treatment alone, room temperature): approximately 2 fold
LRRASLG | – | – | decrease in activity on phosphorylation by cyclic AMP dependent protein kinase [3]: 30%
Wild type luciferase: wild type (firefly) luciferase control | – | – | response to known modulators of intracellular cAMP concentration ([2]; control constructs in HEK 293 cells): no specific response
pBFB400: Met-(OpLuc 1-84)-GSTG-R2betaB-GSSG-(OpLuc 85-169) (protein) MFTLADFVGDWQQTAGYNQDQVLEQGGLSSLFQALGVSVTPIQKVVLSGENGLKADIHVIIPYEGLSGFQMGLIEMIFKVVYPVDGSTGMYESFIESLPFLKSLEFSERLKVVDVIGTKVYNDGEQIIAQGDSADSFFIVESGEVKITMKRKGKSEVEENGAVEIARCSRGQYFGELALVTNKPRAASAHAIGTVKCLAMDVQAFERLLGPCMEIMKRNIATYEEQLVALFGTNMDIVGSSGDHHFKIILHYGTLVIDGVTPNMIDYFGRPYPGIAVFDGKQITVTGTLWNGNKIYDERLINPDGSLLFRVTINGVTGWRLCENILA | 10,369 | 6,387 | –
pBFB398: Met-(OpLuc 1-50)-GSSGGSGGSG-R2betaB-GSSGGSGGSG-(OpLuc 51-169) (protein) MFTLADFVGDWQQTAGYNQDQVLEQGGLSSLFQALGVSVTPIQKVVLSGENGSSGGSGGSGMYESFIESLPFLKSLEFSERLKVVDVIGTKVYNDGEQIIAQGDSADSFFIVESGEVKITMKRKGKSEVEENGAVEIARCSRGQYFGELALVTNKPRAASAHAIGTVKCLAMDVQAFERLLGPCMEIMKRNIATYEEQLVALFGTNMDIVGSSGGSGGSGGLKADIHVIIPYEGLSGFQMGLIEMIFKVVYPVDDHHFKIILHYGTLVIDGVTPNMIDYFGRPYPGIAVFDGKQITVTGTLWNGNKIYDERLINPDGSLLFRVTINGVTGWRLCENILA | 4,917 | 291 | –
pBFB232: CPM hRL 92-311/3-91 with GAF A domain from Trypanosoma brucei PDE (SEQ ID NO:185) (protein) MYRLLDHYKYLTAWFELLNLPKKIIFVGHDWGACLAFHYSYEHQDKIKAIVHAESVVDVIESWDEWPDIEEDIALIKSEEGEKMVLENNFFVETMLPSKIMRKLEPEEFAAYLEPFKEKGEVRRPTLSWPREIPLVKGGKPDVVQIVRNYNAYLRASDDLPKMFIESDPGFFSNAIVEGAKKFPNTEFVKVKGLHFSQEDAPDEMGKYIKSFVERVLKNEQGSSGGSGGSGGGSGGSGGSGSIMNTVKSLTESARCSLFLVRGDVLEAHFEDGNVVTIPRGAGIAGYVAQTGETVNIVDAYADDRFNREVDKATGYRTKTILCMPVMYEGTIVAVAQLINKLDLTTESGLRLPRVFGKRDEELFQTFSMFAGASLRGSGGSGGSGGTSGGSGGSSGASKVYDPEQRKRMITGPQWWARCKQMNVLDSFINYYDSEKHAENAVIFLHGNAASSYLWRHVVPHIEPVARCIIPDLIGMGKSGKSGNGSV | – | – | measured activity in the presence of cAMP ([5]; exogenous cAMP): 7595 RLU; measured activity in the absence of cAMP ([5]; no cAMP): 298 RLU; fold change with cAMP ([5]; presence vs absence of cAMP): ~25 fold
pBFB401: Met-(OpLuc 1-84)-GSSGGSGGSG-R2betaB-GSSGGSGGSG-(OpLuc 85-169) (protein) MFTLADFVGDWQQTAGYNQDQVLEQGGLSSLFQALGVSVTPIQKVVLSGENGLKADIHVIIPYEGLSGFQMGLIEMIFKVVYPVDGSSGGSGGSGMYESFIESLPFLKSLEFSERLKVVDVIGTKVYNDGEQIIAQGDSADSFFIVESGEVKITMKRKGKSEVEENGAVEIARCSRGQYFGELALVTNKPRAASAHAIGTVKCLAMDVQAFERLLGPCMEIMKRNIATYEEQLVALFGTNMDIVGSSGGSGGSGDHHFKIILHYGTLVIDGVTPNMIDYFGRPYPGIAVFDGKQITVTGTLWNGNKIYDERLINPDGSLLFRVTINGVTGWRLCENILA | 6,124 | 2,304 | –
pBFB402: OpLuc 1-84 / R2betaB / OpLuc 85-169, 20 aa linkers (SEQ ID NO: 195) (protein) MFTLADFVGDWQQTAGYNQDQVLEQGGLSSLFQALGVSVTPIQKVVLSGENGLKADIHVIIPYEGLSGFQMGLIEMIFKVVYPVDGSSGGSGGSGGGSGGSGGSGMYESFIESLPFLKSLEFSERLKVVDVIGTKVYNDGEQIIAQGDSADSFFIVESGEVKITMKRKGKSEVEENGAVEIARCSRGQYFGELALVTNKPRAASAHAIGTVKCLAMDVQAFERLLGPCMEIMKRNIATYEEQLVALFGTNMDIVGSGGSGGSGGTSGGSGGSSGDHHFKIILHYGTLVIDGVTPNMIDYFGRPYPGIAVFDGKQITVTGTLWNGNKIYDERLINPDGSLLFRVTINGVTGWRLCENILA | 62,264 | 8,568 | –
pBFB399: OpLuc 1-50 / R2betaB / OpLuc 51-169, 20 aa linkers (SEQ ID NO: 192) (protein) MFTLADFVGDWQQTAGYNQDQVLEQGGLSSLFQALGVSVTPIQKVVLSGENGSSGGSGGSGGGSGGSGGSGMYESFIESLPFLKSLEFSERLKVVDVIGTKVYNDGEQIIAQGDSADSFFIVESGEVKITMKRKGKSEVEENGAVEIARCSRGQYFGELALVTNKPRAASAHAIGTVKCLAMDVQAFERLLGPCMEIMKRNIATYEEQLVALFGTNMDIVGSGGSGGSGGTSGGSGGSSGGLKADIHVIIPYEGLSGFQMGLIEMIFKVVYPVDDHHFKIILHYGTLVIDGVTPNMIDYFGRPYPGIAVFDGKQITVTGTLWNGNKIYDERLINPDGSLLFRVTINGVTGWRLCENILA | 38,051 | 356 | –
